Molecular target: IGF-1 receptor (UniProt P08069)
Assay: cell-based or functional assay

UniProt P08069, sequence (P08069 31-1367): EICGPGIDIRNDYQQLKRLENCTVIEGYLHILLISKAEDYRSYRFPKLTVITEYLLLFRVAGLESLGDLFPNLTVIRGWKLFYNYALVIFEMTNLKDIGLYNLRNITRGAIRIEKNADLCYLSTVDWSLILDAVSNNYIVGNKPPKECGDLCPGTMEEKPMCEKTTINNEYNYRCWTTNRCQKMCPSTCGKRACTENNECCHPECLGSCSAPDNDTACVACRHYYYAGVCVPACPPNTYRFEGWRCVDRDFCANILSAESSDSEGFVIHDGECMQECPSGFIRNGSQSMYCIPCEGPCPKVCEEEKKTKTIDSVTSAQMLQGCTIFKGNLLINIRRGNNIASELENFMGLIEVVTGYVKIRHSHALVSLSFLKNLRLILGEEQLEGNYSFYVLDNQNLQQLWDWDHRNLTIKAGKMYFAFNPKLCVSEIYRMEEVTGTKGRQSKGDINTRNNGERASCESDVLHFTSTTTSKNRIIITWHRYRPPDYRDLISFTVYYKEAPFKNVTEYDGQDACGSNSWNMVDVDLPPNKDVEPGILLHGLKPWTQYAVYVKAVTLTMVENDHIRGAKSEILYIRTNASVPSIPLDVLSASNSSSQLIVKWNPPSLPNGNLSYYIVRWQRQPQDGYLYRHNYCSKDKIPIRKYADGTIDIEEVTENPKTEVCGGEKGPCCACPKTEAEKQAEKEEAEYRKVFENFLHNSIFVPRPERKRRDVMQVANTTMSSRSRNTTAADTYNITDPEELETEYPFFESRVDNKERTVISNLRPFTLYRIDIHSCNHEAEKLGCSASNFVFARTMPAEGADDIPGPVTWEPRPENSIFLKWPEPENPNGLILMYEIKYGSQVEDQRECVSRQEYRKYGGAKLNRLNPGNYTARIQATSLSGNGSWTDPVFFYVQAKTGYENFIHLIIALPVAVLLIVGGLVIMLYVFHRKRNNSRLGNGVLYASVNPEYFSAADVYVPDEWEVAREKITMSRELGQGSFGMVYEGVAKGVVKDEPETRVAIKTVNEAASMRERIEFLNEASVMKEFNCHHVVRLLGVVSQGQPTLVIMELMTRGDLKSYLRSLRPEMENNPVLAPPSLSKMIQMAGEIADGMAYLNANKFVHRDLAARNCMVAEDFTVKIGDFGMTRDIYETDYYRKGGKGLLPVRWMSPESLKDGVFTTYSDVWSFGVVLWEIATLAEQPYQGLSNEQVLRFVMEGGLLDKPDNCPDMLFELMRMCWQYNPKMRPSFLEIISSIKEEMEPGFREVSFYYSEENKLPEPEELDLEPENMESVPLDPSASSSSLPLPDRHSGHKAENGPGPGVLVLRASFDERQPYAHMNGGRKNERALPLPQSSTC

IGF-1 (LR3) (ligand)
pAKT EC50 (concentration needed to achieve the half maximal level of pAKT signaling), healthy iPSC-derived cardiomyocytes, pAKT ELISA: 0.73

Reference: patent US20220009991A1
